For orientation: Kd means the free concentration of one partner at which half of the binding sites on the other are occupied at equilibrium, for simple one-to-one binding. The low end stands for a tighter complex, the high end for a looser complex.

Experiment [1] addresses T1, Poly-(ADP-ribose) polymerase 1 (PARP1), wild type, labelled with Alexa488, bound to p18mer DNA (UniProt P09874 1-1014, Alexa488 C4 maleimide label (extent of labeling typically 50-100%)).
T1 construct: Poly-(ADP-ribose) polymerase 1 (PARP1), wild type; In the assay premixed with p18mer double-stranded DNA (0.2 uM); the DNA is no protein chain; also called PARP1 - p18mer complex; 488-labeled PARP1
Briefly: FRET or BRET; Alexa647-HPF1 (0.6-10,000 nM) titrated into Alexa488-PARP1 (0.2 uM) premixed with p18mer DNA (0.2 uM) and DMSO (control, no olaparib); binding buffer 50 mM Tris-HCl pH 8.0, 50 mM NaCl, 1 mM MgCl2, 0.1 mM EDTA, 0.01% IGEPAL. Conditions: both partners purified. (BRET reads energy transfer from a luciferase to a nearby fluorophore.)

Experiment [2] deals with T1, Poly-(ADP-ribose) polymerase 1 (PARP1), …. The experiment is described as follows: FRET or BRET; as a3 but with olaparib (1 uM): Alexa647-HPF1 titrated into Alexa488-PARP1 (0.2 uM) premixed with p18mer DNA (0.2 uM) and olaparib; binding buffer. Conditions: both partners purified.

T1 sequence (P09874 whole entry): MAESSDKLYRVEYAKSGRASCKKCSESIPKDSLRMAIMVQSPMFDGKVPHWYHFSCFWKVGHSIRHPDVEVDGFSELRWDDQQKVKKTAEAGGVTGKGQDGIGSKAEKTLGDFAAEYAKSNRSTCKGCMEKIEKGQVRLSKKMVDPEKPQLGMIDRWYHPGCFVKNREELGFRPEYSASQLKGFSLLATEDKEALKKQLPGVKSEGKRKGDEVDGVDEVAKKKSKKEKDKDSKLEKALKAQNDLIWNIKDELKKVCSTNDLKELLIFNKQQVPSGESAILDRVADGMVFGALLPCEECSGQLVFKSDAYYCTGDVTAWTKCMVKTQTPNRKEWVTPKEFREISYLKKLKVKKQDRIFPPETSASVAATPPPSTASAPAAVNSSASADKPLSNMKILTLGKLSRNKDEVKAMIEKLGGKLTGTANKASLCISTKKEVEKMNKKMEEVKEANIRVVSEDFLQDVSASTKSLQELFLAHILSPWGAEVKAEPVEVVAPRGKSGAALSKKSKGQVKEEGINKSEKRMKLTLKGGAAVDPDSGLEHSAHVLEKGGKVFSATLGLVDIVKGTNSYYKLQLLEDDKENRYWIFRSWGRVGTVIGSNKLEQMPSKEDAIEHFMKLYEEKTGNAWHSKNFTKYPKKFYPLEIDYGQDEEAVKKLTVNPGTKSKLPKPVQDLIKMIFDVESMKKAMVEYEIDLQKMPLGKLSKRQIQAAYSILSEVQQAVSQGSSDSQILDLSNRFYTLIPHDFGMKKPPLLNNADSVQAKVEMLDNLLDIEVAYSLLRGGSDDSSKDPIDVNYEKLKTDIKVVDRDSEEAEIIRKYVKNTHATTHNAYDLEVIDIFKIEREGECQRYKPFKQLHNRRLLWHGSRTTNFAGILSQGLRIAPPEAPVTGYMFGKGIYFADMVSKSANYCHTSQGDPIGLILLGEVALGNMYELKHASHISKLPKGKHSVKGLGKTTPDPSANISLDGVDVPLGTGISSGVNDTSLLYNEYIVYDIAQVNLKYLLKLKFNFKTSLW

B1: Histone PARylation factor 1 (HPF1), labelled with Alexa647 (natural protein)
chain: LRKEVENHYKLSLPEDFYHFWKFCEELDPEKPSDSLSASLGLQLVGPYDILAGKHKTKKKSTGLNFNLHWRFYYDPPEFQTIIIGDNKTQYHMGYFRDSPDEFPVYVGINEAKKNCIIVPNGDNVFAAVKLFLTKKLREITDKKKINLLKNIDEKLTEAARELGYSLEQRTVKMKQRDKKVVTKTFHGAGLVVPVDKNDVGYRELPETDADLKRICKTIVEAASDEERLKAFAPIQEMMTFVQFANDECDYGMGLELGMDLFCYGSHYFHKVAGQLLPLAYNLLKRNLFAEIIEEHLANRSQENIDQLAA
modifications: Alexa647 C2 maleimide label (extent of labeling typically 50-100%)
notes: Histone PARylation factor 1 (HPF1); also called wild-type protein
As for B1, the Kd in experiment [1] was 3800 nM; in experiment [2], 1200 nM.
